According to PMC10848957:

Target: FakA_M, central zinc finger domain of Streptococcus suis FakA (Streptococcus suis serotype 2, strain 05ZYH33)
Experiment: cross-linking

## FakA_M, central zinc finger domain of Streptococcus suis FakA (domain or fragment)
  stoichiometry N: 2
